Laboratory results: article PMC9718833

How the values were obtained:
[1] = biological target: Gi3 heterotrimer of the BRET-based Gi-activation sensor (Gai3-RlucII / GFP10Gγ2 / Gβ1) (UniProt P08754)
[2] = biological target: Gs protein (human (endogenous in HEK293T)) (UniProt P63092)
Sequence of UniProt P63092 (P63092 whole entry, looked up): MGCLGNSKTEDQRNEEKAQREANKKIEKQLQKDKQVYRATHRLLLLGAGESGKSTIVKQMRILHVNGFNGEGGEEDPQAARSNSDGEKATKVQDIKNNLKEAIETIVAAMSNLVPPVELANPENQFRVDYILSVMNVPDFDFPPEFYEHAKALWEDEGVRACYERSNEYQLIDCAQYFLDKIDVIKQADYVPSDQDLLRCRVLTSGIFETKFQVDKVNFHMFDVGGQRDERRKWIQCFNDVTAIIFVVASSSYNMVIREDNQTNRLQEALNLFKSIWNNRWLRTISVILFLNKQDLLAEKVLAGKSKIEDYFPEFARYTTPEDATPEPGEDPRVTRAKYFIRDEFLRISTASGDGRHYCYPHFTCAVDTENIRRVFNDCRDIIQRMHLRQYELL

Sequence of UniProt P08754 (P08754 whole entry, chain 1 of 3): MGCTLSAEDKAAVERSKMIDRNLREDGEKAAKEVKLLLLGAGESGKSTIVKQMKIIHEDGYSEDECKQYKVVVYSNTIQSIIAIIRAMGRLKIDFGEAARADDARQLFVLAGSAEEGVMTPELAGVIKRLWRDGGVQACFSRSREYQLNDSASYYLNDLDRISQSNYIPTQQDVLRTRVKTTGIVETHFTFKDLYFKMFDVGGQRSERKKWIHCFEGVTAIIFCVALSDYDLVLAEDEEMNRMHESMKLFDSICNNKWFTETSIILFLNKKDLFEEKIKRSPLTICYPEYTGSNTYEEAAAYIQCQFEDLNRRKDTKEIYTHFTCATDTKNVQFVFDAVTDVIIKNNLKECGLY
Sequence of UniProt P08754 (P62873 whole entry, chain 2 of 3, further chain): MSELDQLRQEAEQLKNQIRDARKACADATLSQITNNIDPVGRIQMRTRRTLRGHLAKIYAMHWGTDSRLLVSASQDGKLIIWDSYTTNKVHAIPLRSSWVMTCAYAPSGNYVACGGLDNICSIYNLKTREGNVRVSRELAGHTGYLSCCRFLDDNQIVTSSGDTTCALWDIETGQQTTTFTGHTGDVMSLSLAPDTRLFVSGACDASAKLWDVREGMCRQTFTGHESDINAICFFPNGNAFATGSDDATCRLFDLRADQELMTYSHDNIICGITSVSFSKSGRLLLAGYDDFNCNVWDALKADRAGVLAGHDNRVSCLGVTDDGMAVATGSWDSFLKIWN
Sequence of UniProt P08754 (P59768 whole entry, chain 3 of 3, further chain): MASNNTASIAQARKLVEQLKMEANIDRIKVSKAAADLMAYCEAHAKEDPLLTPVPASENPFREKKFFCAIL

| Substance | increase of the Emax of CHRM1 activation of Gi compared to WT CHRM1, BRET-based Gi-activation (Gi3) sensor in HEK293T, carbachol (% increase of Emax against WT) [1] | increase of the Emax of Gs-dependent cAMP production following carbachol, EPAC-BRET sensor in HEK293T with 500 nM of the Gq inhibitor YM-254890, against WT CHRM1 (% increase of Emax) [2] |
| --- | --- | --- |
| HA-tagged human M1 muscarinic acetylcholine receptor (CHRM1) A424K (from UniProt P11229 1-460) | 31 |  |
| HA-tagged human M1 muscarinic acetylcholine receptor (CHRM1) E221K (from UniProt P11229 1-460) | 30 |  |
| HA-tagged human M1 muscarinic acetylcholine receptor (CHRM1) L131F (from UniProt P11229 1-460) |  | 51 |
| HA-tagged human M1 muscarinic acetylcholine receptor (CHRM1) R218Q (from UniProt P11229 1-460) |  | 17 |
